Data on 32 sequences can be found in the supplement of paper PMC12764529.

± gives the half width of the 95% confidence interval. Where only a bound is given, the exact number is not on record here.

Data set [1] in a line: folding stability dG unfold (combined trypsin and chymotrypsin); higher = more stable. An outline of the steps: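 How resistant each design was to proteolysis was captured as K50, inferred by Bayesian fitting of sequencing counts. Unfolding free energy was then derived relative to a sequence-predicted unfolded-state K50 and a shared folded-state K50, per protease or combined. Digestion used trypsin and chymotrypsin at 11 threefold-diluted concentrations plus a no-protease condition, on mini-proteins under 80 residues without cysteine in a PA-tagged cDNA display construct. Designs were kept only when AlphaFold2 dimer inter-PAE was above 15.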

Data set [2] can be described thus: folding stability dG unfold from trypsin proteolysis; higher = more stable. The protocol:
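Folding stability of de novo designed mini-proteins (<80 aa, no Cys; designed by TrROS, TrMRF, ProteinMPNN and the joint model) was measured by cDNA display proteolysis with trypsin and chymotrypsin. Each protease was used at 11 concentrations in a threefold dilution series plus a no-protease condition. K50 was inferred by Bayesian fitting of sequencing counts, and dG unfold was derived against a sequence-predicted unfolded-state K50 (Tsuboyama et al. method). Sequences shown include variable-length N-terminal GS-type padding (SAGGSAGG...) inside a display construct carrying a PA tag. Rows were kept only if the AF2 dimer inter-PAE was >15, to exclude likely homo-oligomers.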

“SAGGSAGGSSPDIEVEITVDAPPGARILGTDGKPVEIPASNPKVKIIVIEGDNSFFIKTEPVGSAGGSAGGS [r12_338_TrMRF]”: the figures for the “folding stability dG unfold” value in data set [1] and in data set [2] were under -1 kcal/mol and -0.362 ± 0.22 kcal/mol, respectively.
With “SAGGSAGGSSPEIPLPPEIAEEIEVPGSGTTVLLHPSTGLVLYKPPPEELAVGRYDPSTGVLESAGGSAGGS [r12_420_JUSTAS]”, the “folding stability dG unfold” value amounted to 0.475 ± 0.15 kcal/mol in data set [1] and 0.985 ± 0.051 kcal/mol in data set [2].
For “SAGGSAGGSSPIVVEEEPDRYVITIPPSQPELVEEVLEKLGLPAEDITRTLIPEGLVRYEVPGSAGGSAGGS [r12_493_JUSTAS]” the same measures were under -1 kcal/mol and -0.419 ± 0.28 kcal/mol.
For “SAGGSAGGSTPPLTTETEAVIEIEGGLYSVKVTQLPPDETLMTIPANGMIIRETPDKIEIRPESAGGSAGGS [r12_737_JUSTAS]” the same measures were under -1 kcal/mol and -0.374 ± 0.28 kcal/mol.
For “SAGGSAGGSVEIKSITTVTDPNSSANPTTITVKRDPAKGVLGEEVKAIAKALEEAGYPTTFGTSAGGSAGGS [r12_172_JUSTAS]” the same measures were under -1 kcal/mol and -0.769 ± 0.17 kcal/mol.
Take “SAGGSAGGYVEVTIMIPPDDLDEIKEIAEPFGFTSVETERVPDNPMVVVKIEVKIPKEDDKDNKSAGGSAGG [r6_273_TrROS]”: the results for the “folding stability dG unfold” value in data set [1] and in data set [2] were -0.139 ± 0.2 kcal/mol and 0.427 ± 0.054 kcal/mol, respectively.
Taken in the same sequence, the figures for “SAGGSALPPDQRLVVIDLGREPGVTPDEPVEVPEELIEKIKKENPNVKLVEVKHEGDKVTLYIAIKSAGGSA [r2_383_JUSTAS]” were under -1 kcal/mol and -0.0124 ± 0.48 kcal/mol.
For the sequence “SAGGSAMIKTYEEEVELTVPGGSTPVKVRVKTIEKIEKDEKGNLKTEVVEVKIETPENAPAVALLLSAGGSA [r15_258_JUSTAS]”, the “folding stability dG unfold” value was -0.857 ± 0.51 kcal/mol in data set [1] and -0.327 ± 0.21 kcal/mol in data set [2].
Taken in the same sequence, the figures for “SAGGSAMPPGQPWKIKRTIPFKDPNGWKITIYRMPDDGHVWVRWEPPNGGEREVWMPAEEAEDALKSAGGSA [r15_2_TrROS]” were 0.307 ± 0.58 kcal/mol and 0.902 ± 0.23 kcal/mol.
For the sequence “SAGGSAMVPEDEGLIVVERDVPFDKAEEFVEEVIEELGIPPEKVKKIELFEEKVEDGPALRALVYLSAGGSA [r15_934_TrMRF]”, the “folding stability dG unfold” value in data set [1] was under -1 kcal/mol; in data set [2], -0.294 ± 0.32 kcal/mol.
For “SAGGSAPGKKTIKIEIIFPFPEEQAKEFADYIAKGIADETGHDPENIDIKVEVHVFDPANNEPRPFSAGGSA [r15_918_TrROS]” the same measures were -0.511 ± 0.25 kcal/mol and -0.236 ± 0.2 kcal/mol.
For “SAGGSASMITSTLTDPSTGTSSTLPTEVLQKLLDENPPDSNLVLPTGPKPVTVKVEPEKGLATFTGSAGGSA [r15_350_JUSTAS]” the same measures were -0.989 ± 0.29 kcal/mol and 0.153 ± 0.039 kcal/mol.
Taken in the same sequence, the figures for “SAGGSASYSSLKITIIDTGTTTTVPPGATTTPTVVKLPDNKTAIITTTTPPDGTTATTVELFDNDKSAGGSA [r15_559_JUSTAS]” were under -1 kcal/mol and -0.717 ± 0.12 kcal/mol.
With “SAGGSATIKEGQVITRTVTDPSTGKEYEVEITIKKVTKYPASPEGILREEYEIEVKKSPKVSPLKLSAGGSA [r15_248_JUSTAS]”, the entries for the “folding stability dG unfold” value in data set [1] and in data set [2] were under -1 kcal/mol and 0.112 ± 0.12 kcal/mol, respectively.
For “SAGGSAVVEIPIPPSSLDVRALIVPTDGPLTTVLVEETLPDGTPRVRLYRYDPARGEVRPLAEELPSAGGSA [r2_402_JUSTAS]” the same measures were under -1 kcal/mol and -0.671 ± 0.17 kcal/mol.
On to “SAGGSAYGKKKNDPDGNPKYEMEPQPTIEVPVTIPIFDNNNNPLLEIPIPASMPISDINDEIKDLFSAGGSA [r15_309_TrROS]”, for which the “folding stability dG unfold” value in data set [1] was under -1 kcal/mol; in data set [2], -1.57 ± 0.7 kcal/mol.
Taken in the same sequence, the figures for “SAGGSENPNDPRPVVPVGVAVVDIEIHGHPDMTEEERLAAVEEAVEALEGLEVEHPDGHPTILLAGSAGGSA [r2_149_TrMRF]” were under -1 kcal/mol and -0.161 ± 0.071 kcal/mol.
For “SAGGSGMRKFSPEEAKKKEVVITIPVVTYSPSLKFSPVTVPVTVSGPVTSDEEAKEKVEKAVKELASAGGSA [r2_244_JUSTAS]” the same measures were under -1 kcal/mol and -1.03 ± 0.48 kcal/mol.
Take “SAGGSLPADAEVTEVVEDPSKGVVTVKVTVRDSEGKVVEERTVVTPVEPVPPLSPENLKKNLLLTLLSAGGS [r16_697_JUSTAS]”: the results for the “folding stability dG unfold” value in data set [1] and in data set [2] were -0.741 ± 0.94 kcal/mol and 0.249 ± 0.12 kcal/mol, respectively.
Taken in the same sequence, the figures for “SAGGSLPVVDGPSDLVETTVYEDGTIEIKVERAEPPGVPTVRTLTITLEPPVGPPKVPPGNPKYLGSAGGSA [r2_368_JUSTAS]” were under -1 kcal/mol and -1.08 ± 0.53 kcal/mol.
Taken in the same sequence, the figures for “SAGGSMTLTEVSYEGDKVVTTTTTFTPGAPALTSSTTTTPIPPVPLGPRPVIFFEPVSEMRPLALVSAGGSA [r2_332_JUSTAS]” were 0.034 ± 0.17 kcal/mol and 0.628 ± 0.051 kcal/mol.
Taken in the same sequence, the figures for “SAGGSMTLTFRKPDTDVTSEKVTKPPGGPELVDLRITPPDGSGEKRTLTPEELAKEFGLSLEEILESAGGSA [r2_262_JUSTAS]” were under -1 kcal/mol and -0.183 ± 0.31 kcal/mol.
Consider “SAGGSPTIDITPEVFEELKKKGVTPDKESFNITASLPDGTVYEGTITLPPSNPNIPFEYKPVDKPLESAGGS [r16_497_JUSTAS]”, for which the “folding stability dG unfold” value in data set [1] was -0.515 ± 0.21 kcal/mol; in data set [2] it was -0.22 ± 0.061 kcal/mol.
With “SAGGSRQVIEWEFKDPKNGKPFEISIEYDEENGVPMVEIRDRNGEPNAVVPVPPDNADEALEKFGISAGGSA [r2_115_TrROS]”, the “folding stability dG unfold” value in data set [1] was under -1 kcal/mol; in data set [2] it was -0.903 ± 0.46 kcal/mol.
For “SAGGSVRIESIKWKRPPNGMFKIEIHVEAPPGDPDDPEKQERQAESVAKPIAKELQDEFGFKPIGPSAGGSA [r2_306_TrROS]” the same measures were under -1 kcal/mol and -0.774 ± 0.99 kcal/mol.
As for “SAGGWMPIEDLKDIPENMPPGYKITIRNPGNGQEGTFEYNKDGGIKIEDPGKPVEIPPGAYIDEIEPSAGGS [r8_162_TrROS]”, the “folding stability dG unfold” value in data set [1] is -0.679 ± 0.71 kcal/mol; in data set [2], 0.654 ± 0.12 kcal/mol.
Taken in the same sequence, the figures for “SAGGWRLNINFPPDNIEKIVEKLRDEFPGWEIKPDKIEYNPDDGQYTIPIEVKSKNPRAAEKIQDAIQSAGG [r13_539_TrROS]” were -0.955 ± 0.39 kcal/mol and 0.154 ± 0.14 kcal/mol.
For “SAGKFKITSIKPLYVTTPADAPPVKKPYLVIELDAEDPEKARELAEKLTGAPVLVVEDPETGTATIVIDSAG [r5_907_TrMRF]” the same measures were -0.357 ± 0.17 kcal/mol and 0.121 ± 0.082 kcal/mol.
Taken in the same sequence, the figures for “SAGKITIEYDKETNTVTVTIEIEIEVINEDGSIEKKKITITVKVKVDKKTNKVELLSLDEILKKLEELLSAG [r5_239_TrROS_Hall]” were 3.81 ± 0.36 kcal/mol and 2.92 ± 0.2 kcal/mol.
For the sequence “SAGMYTVLETRTVNGRTVTLIDVPERPLTVTVTVDRDPSGRRTVTVNVEGEVKEILEKANPDIDELTLESAG [r5_933_JUSTAS]”, the “folding stability dG unfold” value in data set [1] is -0.15 ± 0.2 kcal/mol; in data set [2], 0.456 ± 0.096 kcal/mol.
For “SAGPKIVEVKPSNGKLEITVEIPVPGAPVLFLNPAKNATIESDPNGRITITLDSEGEYEIIIGNPVFDSAGG [r19_227_TrMRF]” the same measures were 0.0526 ± 0.087 kcal/mol and 0.394 ± 0.026 kcal/mol.
For “SAGSMPVESTSERKLEKDGVATVTTTSYPDASPGGTDTVTVTLHPGESESATTTYTQPPGAPPLTVSLESAG [r5_47_JUSTAS]” the same measures were under -1 kcal/mol and -1.05 ± 0.27 kcal/mol.
